Reference: patent US7387779B2, “Anti-angiogenic proteins and fragments and methods of use thereof” (Beth Israel Deaconess Medical Center, priority 1998, dated 2008)

System: C-PAE cells
Assay: Annexin V-FITC apoptosis assay
Assay type: cell-based, bovine
Conditions: for Apo (Annexin V-FITC assay): Table 4; for IC50, induction of endothelial cell apoptosis: 10% FBS
Procedure: Fifty thousand C-PAE cells were added to each well of a 6-well tissue culture plate in DMEM supplemented with 10% FBS for 12 hours. Fresh medium together and either 5 μg/ml Arresten or 40 ng/ml TNFα (positive control) was added at 2, 4 and 6 hour time points. Control wells received an equal of volume of PBS. Detached cells and adherent cells were pooled together and centrifuged at 1500 rpm. Cells were washed with binding buffer (Clontech, Palo Alto, Calif., USA), and phosphatidyl-serine (PS) externalization, an indicator of apoptosis, was measured by labeling with FITC-labeled annexin V (Clontech) according to manufacturer's instructions. Annexin-FITC labeled cells were counted using a FACStar Plus flow cytometer (Becton-Dickinson, Waltham, Mass., USA). For each treatment, 10,000 cells were counted and stored. […] Relative to controls, the percentage of annexin-V-stained (apoptotic) cells increased to about 27% at 2 hours, and near 20% at 4 and 6 hours for the positive control, TNFα. For Arresten-treated cells, the percentage of apoptotic cells was about 18% at 2 hours, and about 23% at 4 and 6 hours.
Annexin V-FITC Labeling. In order to establish apoptosis as the potential mode of action for Canstatin, Annexin V-FITC was used to label externalized phosphatidylserine (PS), to assess apoptotic cells. 0.5×10^6 C-PAE cells, PC-3, 786-O and HEK 293 cells were added to each well of a 6 well tissue culture plate in 10% FBS supplemented DMEM (BioWhittaker, Walkersville, Md., USA) overnight. The next day, fresh medium was added to all wells together with 40 ng/ml TNF-α (positive control) or 15 μg/ml Canstatin. Control cells received an equal volume of PBS. After 24 hours of treatment, medium containing detached cells was collected and attached cells were trypsinized and combined with detached cells and centrifuged at 3,000×g. Cells were then washed and phosphatidyl-serine externalization (an early apoptotic indicator) was measured by labeling with FITC-labeled annexin V (Clontech, Palo Alto, Calif., USA) according to the manufacturer's instructions. Annexin V-FITC-labeled cells were counted using a FAC Star Plus flow cytometer (Becton-Dickenson, Waltham, Mass., USA). For each treatment 15,000 cells were counted and stored in listmode.
C-PAE cells (0.5×10^6 per well) were seeded onto a 6-well plate in 10% FCS supplemented DMEM. The next day, fresh medium containing 10% FCS was added with either 80 ng/ml of TNF-α (positive control) or Tumstatin ranging from 0.02 to 20 μg/ml. Control cells received an equal volume of PBS. After 18 hours of treatment, medium containing floating cells was collected, and attached cells were trypsinized and centrifuged together with floating cells at 3,000×g. The cells were then washed in PBS and resuspended in binding buffer (10 mM HEPES/NaOH, pH 7.4, 140 mM NaCl, 2.5 mM CaCl2). Annexin V-FITC (Clontech, Palo Alto, Calif., USA) was added to a final concentration of 150 ng/ml, and the cells were incubated in the darkness for 10 minutes. The cells were washed again in PBS and resuspended in binding buffer. Annexin V-FITC labeled cells were counted using a FACStar Plus flow cytometer (Becton-Dickinson, Waltham, Mass., USA). For each treatment, 15,000 cells were counted and stored in listmode.
Apoptosis was measured by Annexin V-FITC assay, using the ApoAlert kit (Clontech, Palo Alto, Calif., USA). Propidium iodide was used to stain the nuclei of cells that had died by ways other than apoptosis.
The assay was performed as described above, by treating C-PAE cells with Tumstatin-44-131 for 18 hours. Control cells received PBS.

B1: Tumstatin: NC1 domain of the α3 chain of type IV collagen, residues 1-244 (SEQ ID NO:10) (protein, listed as Homo sapiens)
chain: GLKGKRGDSGSPATWTTRGFVFTRHSQTTAIPSCPEGTVPLYSGFSFLFVQGNQRAHGQDLGTLGSCLQRFTTMPFLFCNVNDVCNFASRNDYSYWLSTPALMPMNMAPITGRALEPYISRCTVCEGPAIAIAVHSQTTDIPPCPHGWISLWKGFSFIMFTSAGSEGTGQALASPGSCLEEFRASPFLECHGRGTCNYYSNSYSFWLASLNPERMFRKPIPSTVKAGELEKIISRCQVCMKKRH
2 μg/ml, 18 hours
  annexin fluorescence: mild shift
20 μg/ml, 18 hours
  annexin fluorescence: distinct shift of annexin fluorescence peak
  Apo (Annexin V-FITC assay): 10 µg
Concentrations below 0.2 μg/ml
  annexin fluorescence: did not demonstrate any annexin V positivity

B2: Canstatin: NC1 domain of the α2 chain of Type IV collagen (SEQ ID NO:6) (protein, listed as Homo sapiens)
chain: VSIGYLLVKHSQTDQEPMCPVGMNKLWSGYSLLYFEGQEKAHNQDLGLAGSCLARFSTMPFLYCNPGDVCYYASRNDKSYWLSTTAPLPMMPVAEDEIKPYISRCSVCEAPAIAIAVHSQDVSIPHCPAGWRSLWIGYSFLMHTAAGDEGGGQSLVSPGSCLEDFRATPFIECNGGRGTCHYYANKYSFWLTTIPEQSFQGSPSADTLKAGLIRTHISRCQVCMKNL
15 μg/ml Canstatin, 24 hours
  induction of apoptosis: specifically induce apoptosis of endothelial cells
Concentrations above 1 μg/ml
  induction of apoptosis: induced apoptosis

B3: Tumstatin-44-131: residues 44 to 131 of full-length Tumstatin (SEQ ID NO:33) (protein)
chain: FSFLFVQGNQRAHGQDLGTLGSCLQRFTTMPFLFCNVNDVCNFASRNDYSYWLSTPALMPMNMAPITGRALEPYISRCTVCEGPAIAI
modifications: Tumstatin-45-132 (amino acids 45-132 of SEQ ID NO10)
5 μg/ml Tumstatin-44-131, 18 hours
  annexin fluorescence: distinct shift of the fluorescence intensity peak
  Apo (Annexin V-FITC assay): active

B4: Can-1: N-terminal 114 amino acids of full-length Canstatin (protein, listed as Homo sapiens)
chain: VSIGYLLVKHSQTDQEPMCPVGMNKLWSGYSLLYFEGQEKAHNQDLGLAGSCLARFSTMPFLYCNPGDVCYYASRNDKSYWLSTTAPLPMMPVAEDEIKPYISRCSVCEAPAIA
Concentrations above 1 μg/ml
  induction of apoptosis: induced apoptosis
Concentrations of less than 1 μg/ml
  induction of apoptosis: most potent in inducing apoptosis

B5: Tum-1: residues 54 to 244 of Tumstatin, lacking the N-terminal 53 amino acids (SEQ ID NO:22) (protein)
chain: QRAHGQDLGTLGSCLQRFTTMPFLFCNVNDVCNFASRNDYSYWLSTPALMPMNMAPITGRALEPYISRCTVCEGPAIAIAVHSQTTDIPPCPHGWISLWKGFSFIMFTSAGSEGTGQALASPGSCLEEFRASPFLECHGRGTCNYYSNSYSFWLASLNPERMFRKPIPSTVKAGELEKIISRCQVCMKKRH
modifications: Tum-1 (Tumstatin N-53) (amino acids 54-244 of SEQ ID NO10)
  IC50, induction of endothelial cell apoptosis: about 5 μg/ml
  Apo (Annexin V-FITC assay): 5 µg

B6: endostatin: tumor associated angiogenesis inhibitor used as comparator (protein, UniProt P39060 1572-1754, looked up)
Endostatin: HSHRDFQPVLHLVALNSPLSGGMRGIRGADFQCFQQARAVGLAGTFRAFLSSRLQDLYSIVRRADRAAVPIVNLKDELLFPSWEALFSGSEGPLKPGARIFSFDGKDVLRHPTWPQKSVWHGSDPNGRRLTESYCETWRTEAPSATGQASSLLGGRLLGQSAASCHHAYIVLCIENSFMTASK
modifications: Endostatin
  IC50, induction of endothelial cell apoptosis: no activity
